Data as given in paper PMC7615141, “ADAMTS-7 modulates atherosclerotic plaque formation by degradation of TIMP-1” (Circulation research, 2023).

B1: ADAMTS-7-FLAG (enzyme, human, UniProt Q9UKP4 28-1686, looked up)
chain: APGPAPGRATEGRAALDIVHPVRVDAGGSFLSYELWPRALRKRDVSVRRDAPAFYELQYRGRELRFNLTANQHLLAPGFVSETRRRGGLGRAHIRAHTPACHLLGEVQDPELEGGLAAISACDGLKGVFQLSNEDYFIEPLDSAPARPGHAQPHVVYKRQAPERLAQRGDSSAPSTCGVQVYPELESRRERWEQRQQWRRPRLRRLHQRSVSKEKWVETLVVADAKMVEYHGQPQVESYVLTIMNMVAGLFHDPSIGNPIHITIVRLVLLEDEEEDLKITHHADNTLKSFCKWQKSINMKGDAHPLHHDTAILLTRKDLCAAMNRPCETLGLSHVAGMCQPHRSCSINEDTGLPLAFTVAHELGHSFGIQHDGSGNDCEPVGKRPFIMSPQLLYDAAPLTWSRCSRQYITRFLDRGWGLCLDDPPAKDIIDFPSVPPGVLYDVSHQCRLQYGAYSAFCEDMDNVCHTLWCSVGTTCHSKLDAAVDGTRCGENKWCLSGECVPVGFRPEAVDGGWSGWSAWSICSRSCGMGVQSAERQCTQPTPKYKGRYCVGERKRFRLCNLQACPAGRPSFRHVQCSHFDAMLYKGQLHTWVPVVNDVNPCELHCRPANEYFAEKLRDAVVDGTPCYQVRASRDLCINGICKNVGCDFEIDSGAMEDRCGVCHGNGSTCHTVSGTFEEAEGLGYVDVGLIPAGAREIRIQEVAEAANFLALRSEDPEKYFLNGGWTIQWNGDYQVAGTTFTYARRGNWENLTSPGPTKEPVWIQLLFQESNPGVHYEYTIHREAGGHDEVPPPVFSWHYGPWTKCTVTCGRGVQRQNVYCLERQAGPVDEEHCDPLGRPDDQQRKCSEQPCPARWWAGEWQLCSSSCGPGGLSRRAVLCIRSVGLDEQSALEPPACEHLPRPPTETPCNRHVPCPATWAVGNWSQCSVTCGEGTQRRNVLCTNDTGVPCDEAQQPASEVTCSLPLCRWPLGTLGPEGSGSGSSSHELFNEADFIPHHLAPRPSPASSPKPGTMGNAIEEEAPELDLPGPVFVDDFYYDYNFINFHEDLSYGPSEEPDLDLAGTGDRTPPPHSHPAAPSTGSPVPATEPPAAKEEGVLGPWSPSPWPSQAGRSPPPPSEQTPGNPLINFLPEEDTPIGAPDLGLPSLSWPRVSTDGLQTPATPESQNDFPVGKDSQSQLPPPWRDRTNEVFKDDEEPKGRGAPHLPPRPSSTLPPLSPVGSTHSSPSPDVAELWTGGTVAWEPALEGGLGPVDSELWPTVGVASLLPPPIAPLPEMKVRDSSLEPGTPSFPTPGPGSWDLQTVAVWGTFLPTTLTGLGHMPEPALNPGPKGQPESLSPEVPLSSRLLSTPAWDSPANSHRVPETQPLAPSLAEAGPPADPLVVRNAGWQAGNWSECSTTCGLGAVWRPVRCSSGRDEDCAPAGRPQPARRCHLRPCATWHSGNWSKCSRSCGGGSSVRDVQCVDTRDLRPLRPFHCQPGPAKPPAHRPCGAQPCLSWYTSSWRECSEACGGGEQQRLVTCPEPGLCEEALRPNTTRPCNTHPCTQWVVGPWGQCSGPCGGGVQRRLVKCVNTQTGLPEEDSDQCGHEAWPESSRPCGTEDCEPVEPPRCERDRLSFGFCETLRLLGRCQLPTIRTQCCRSCSPPSHGAPSRGHQRVARR
notes: ADAMTS-7, human; also called ADAMTS-7-FLAG-cryptate; TS7-FLAG-Crypt; source: HEK293, transfected, in lysate

Legend:
ADAMTS-7-FLAG = molecular target: B1; test: AlphaScreen or HTRF; competition in the time-resolved FRET assay: untagged recombinant TIMP-1 (400 or 800 ng) added to ADAMTS-7-FLAG and TIMP-1-HA in lysates; 665/620 nm ratio; seven independent experiments; settings: one partner purified
[1] = molecular target: T1, TIMP-1-HA (tissue inhibitor of metalloproteinases 1 with HA tag) (human, UniProt P01033 24-207); test: AlphaScreen or HTRF; time-resolved FRET; lysates of HEK293 cells overexpressing ADAMTS-7-FLAG and TIMP-1-HA incubated with anti-FLAG-cryptate and anti-HA-d2 antibodies; excitation 337 nm; 665/620 nm ratio as readout; settings: partners not purified
T1 construct: source: HEK293, transfected, in lysate; also in the supernatant
T1 sequence (P01033 24-207): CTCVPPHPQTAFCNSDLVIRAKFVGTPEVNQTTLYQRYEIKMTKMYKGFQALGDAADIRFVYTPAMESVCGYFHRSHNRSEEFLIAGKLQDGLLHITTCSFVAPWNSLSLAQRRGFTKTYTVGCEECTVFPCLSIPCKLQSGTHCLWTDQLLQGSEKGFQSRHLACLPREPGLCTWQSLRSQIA

[2] = molecular target: T1, TIMP-1-HA (tissue inhibitor of …); test: AlphaScreen or HTRF; the pair ADAMTS-7-FLAG and TIMP-1-HA in the competition experiment (lysates; 0 ng untagged TIMP-1 as reference); 665/620 nm ratio; seven independent experiments; settings: partners not purified

Binder	FRET ratio (665/620) of ADAMTS-7-FLAG with TIMP-1-HA in the presence of 400 ng untagged TIMP-1 (ADAMTS-7-FLAG)	FRET ratio (665/620) of ADAMTS-7-FLAG with TIMP-1-HA in the presence of 800 ng untagged TIMP-1 (ADAMTS-7-FLAG)	FRET ratio (665/620) [1]	FRET ratio (665/620) with 0 ng untagged TIMP-1 [2]
untagged, recombinant TIMP-1 (natural protein, The supplier may be named in the Supplemental Material; also called untagged TIMP-1; source: recombinant, untagged) not shown	4420 665/620 ratio	3570 665/620 ratio	–	–
B1	–	–	5480 665/620 ratio	4950 665/620 ratio
